Experimental findings from paper doi:10.1101/2025.11.11.687766 are described below.

Assay [1] deals with Retron-Eco8 effector (OLD-family nuclease), untagged, of the Retron-Eco8^ATP construct (Escherichia coli). The experiment in a line: cryo-EM structure.
Assay [2] concerns the target Retron-Eco8 reverse transcriptase (RT) (Escherichia coli). The assay is described as follows: cryo-EM structure.

“Retron-Eco8 effector (OLD-family nuclease), untagged, of the Retron-Eco8^ATP construct (enzyme)”: the stoichiometry N in assay [1] was 4. The substance further had a stoichiometry N (RT per effector (4:4)) in assay [2] of 1.

For orientation: stoichiometry N means a count of units in the complex or per binding partner.
